Experimental data reported in patent publication US20060140858A1, “Drug pre-targeting by means of bi-specific antibodies and hapten constructs comprising a carrier peptide and the active agent(s)” (Immunomedics, Inc., priority 2002, published 2006).
Each block holds one compound with its values, some of them ahead of it. Where a SMILES comes first, the peptide text is derived from it. The star is where a group is joined. DTPA = O=C(O)CN(CCN(CC(=O)O)CC(=O)O)CCN(CC(=O)O)CC(=O)*

Assays:
GW-39 tumor xenografts [1] = assay: Pretargeting: 125-I-hMN-14 × 734 bsAb, 48 h later 111-In-indium-IMP-156, biodistribution; assay type: in vivo, nude mice; details: 3 h post peptide
[2] = as above; assay type: in vivo, nude mice; details: female, nude (Taconic NCRNU), mouse, 3 h post peptide
GW-39 tumor xenografts [3] = assay: Control group: clearance of 111-In-indium-IMP-156 alone; assay type: in vivo, nude mice; details: 3 h
[4] = as above; assay type: in vivo, nude mice; details: female, NCRNU nude, mouse, total radioactivity
[5] = Pretargeting: I-125 F6 × 734-F(ab′)2, 72 h later In-111-IMP-225, biodistribution; details: female, mouse, in vivo, 10 uCi, total radioactivity, % ID/g tissue

- T/NT (GW-39 tumor xenografts [1]; Blood): 7.6 ± 1.5
- T/NT (GW-39 tumor xenografts [1]; Kidney): 2.6 ± 0.5
- T/NT (GW-39 tumor xenografts [1]; Liver): 10.6 ± 3.5
- T/NT (GW-39 tumor xenografts [1]; Lungs): 12 ± 2
- T/NT (GW-39 tumor xenografts [1]; Spleen): 12 ± 6
- T/NT (GW-39 tumor xenografts [1]; tumor): 1
- tissue uptake at 3 h ([2]; Blood): 0.7 ± 0.2 %ID/g
- tissue uptake at 3 h ([2]; Kidney): 1.9 ± 0.5 %ID/g
- tissue uptake at 3 h ([2]; Lungs): 0.4 ± 0.1 %ID/g
- tissue uptake at 3 h ([2]; tumor): 52 ± 1.9 %ID/g
- T/NT (GW-39 tumor xenografts [3]; Blood): 3.1 ± 0.7
- T/NT (GW-39 tumor xenografts [3]; Kidney): 0.2 ± 0.03
- T/NT (GW-39 tumor xenografts [3]; Liver): 0.3 ± 0.1
- T/NT (GW-39 tumor xenografts [3]; Lungs): 3.5 ± 0.7
- T/NT (GW-39 tumor xenografts [3]; Spleen): 0.5 ± 0.1
- T/NT (GW-39 tumor xenografts [3]; Tumor): 1
- tissue uptake at 3 h ([4]; Blood): 0.05 ± 0.01 %ID/g
- tissue uptake at 3 h ([4]; Kidney): 0.93 ± 0.13 %ID/g
- tissue uptake at 3 h ([4]; Liver): 0.42 ± 0.1 %ID/g
- tissue uptake at 3 h ([4]; Lungs): 0.04 ± 0.01 %ID/g
- tissue uptake at 3 h ([4]; Spleen): 0.28 ± 0.09 %ID/g
- tissue uptake at 3 h ([4]; Tumor): 0.14 ± 0.02 %ID/g
SMILES: CC(=O)N[C@@H](Cc1ccccc1)C(=O)N[C@@H](CCCCNC(=O)CN(CCN(CCN(CC(=O)O)CC(=O)O)CC(=O)O)CC(=O)O)C(=O)N[C@@H](Cc1ccc(O)cc1)C(=O)N[C@@H](CCCCNC(=O)CN(CCN(CCN(CC(=O)O)CC(=O)O)CC(=O)O)CC(=O)O)C(N)=O [IMP 156, Ac-Phe-Lys(DTPA)-Tyr-Lys(DTPA)-NH2] (Ac-FK(DTPA)YK(DTPA)-NH2)

SMILES: COc1cccc2c1C(=O)c1c(O)c3c(c(O)c1C2=O)C[C@@](O)(C(=O)CO)C[C@@H]3O[C@H]1C[C@H](NC(=O)CSC[C@H](NC(C)=O)C(=O)N[C@@H](CCCCNC(=O)CN(CCN(CCN(CC(=O)O)CC(=O)O)CC(=O)O)CC(=O)O)C(=O)N[C@@H](Cc2ccc(O)cc2)C(=O)N[C@@H](CCCCNC(=O)CN(CCN(CCN(CC(=O)O)CC(=O)O)CC(=O)O)CC(=O)O)C(N)=O)[C@H](O)[C@H](C)O1 [IMP 225]
- tissue uptake at 1 h ([5]; NCRNU nude, Spleen, 1 h): 1.6 ± 2.4 %ID/g
- tissue uptake at 1 h ([5]; nude (Taconic NCRNU), Blood, 1 h): 2 ± 0.4 %ID/g
- tissue uptake at 4 h ([5]; nude (Taconic NCRNU), Blood, 4 h): 1.3 ± 0.2 %ID/g
- tissue uptake at 24 h ([5]; nude (Taconic NCRNU), Blood, 24 h): 0.4 ± 0.2 %ID/g
- tissue uptake at 1 h ([5]; nude (Taconic NCRNU), GW-39, 1 h): 14.6 ± 14 %ID/g
- tissue uptake at 4 h ([5]; nude (Taconic NCRNU), GW-39, 4 h): 16.5 ± 4.8 %ID/g
- tissue uptake at 24 h ([5]; nude (Taconic NCRNU), GW-39, 24 h): 10.1 ± 2.3 %ID/g
- tissue uptake at 1 h ([5]; nude (Taconic NCRNU), Kidney, 1 h): 3.8 ± 0.9 %ID/g
- tissue uptake at 4 h ([5]; nude (Taconic NCRNU), Kidney, 4 h): 3.8 ± 0.4 %ID/g
- tissue uptake at 24 h ([5]; nude (Taconic NCRNU), Kidney, 24 h): 1.7 ± 0.3 %ID/g
- tissue uptake at 1 h ([5]; nude (Taconic NCRNU), Large Int., 1 h): 0.2 %ID/g
- tissue uptake at 4 h ([5]; nude (Taconic NCRNU), Large Int., 4 h): 0.3 ± 0.1 %ID/g
- tissue uptake at 24 h ([5]; nude (Taconic NCRNU), Large Int., 24 h): 0.1 %ID/g
- tissue uptake at 1 h ([5]; nude (Taconic NCRNU), Liver, 1 h): 0.4 ± 0.2 %ID/g
- tissue uptake at 4 h ([5]; nude (Taconic NCRNU), Liver, 4 h): 0.4 ± 0.1 %ID/g
- tissue uptake at 24 h ([5]; nude (Taconic NCRNU), Liver, 24 h): 0.3 ± 0.1 %ID/g
- tissue uptake at 1 h ([5]; nude (Taconic NCRNU), Lungs, 1 h): 0.8 ± 0.4 %ID/g
- tissue uptake at 4 h ([5]; nude (Taconic NCRNU), Lungs, 4 h): 0.6 ± 0.1 %ID/g
- tissue uptake at 24 h ([5]; nude (Taconic NCRNU), Lungs, 24 h): 0.2 ± 0.1 %ID/g
- tissue uptake at 1 h ([5]; nude (Taconic NCRNU), Muscle, 1 h): 0.3 ± 0.2 %ID/g
- tissue uptake at 4 h ([5]; nude (Taconic NCRNU), Muscle, 4 h): 0.2 %ID/g
- tissue uptake at 24 h ([5]; nude (Taconic NCRNU), Muscle, 24 h): 0.1 %ID/g
- tissue uptake at 1 h ([5]; nude (Taconic NCRNU), Small Int., 1 h): 0.4 ± 0.1 %ID/g
- tissue uptake at 4 h ([5]; nude (Taconic NCRNU), Small Int., 4 h): 0.3 ± 0.2 %ID/g
- tissue uptake at 24 h ([5]; nude (Taconic NCRNU), Small Int., 24 h): 0.1 %ID/g
- tissue uptake at 4 h ([5]; nude (Taconic NCRNU), Spleen, 4 h): 0.4 ± 0.1 %ID/g
- tissue uptake at 24 h ([5]; nude (Taconic NCRNU), Spleen, 24 h): 0.4 ± 0.1 %ID/g
- tissue uptake at 1 h ([5]; nude (Taconic NCRNU), Stomach, 1 h): 1.1 ± 0.9 %ID/g
- tissue uptake at 4 h ([5]; nude (Taconic NCRNU), Stomach, 4 h): 0.4 ± 0.2 %ID/g
- tissue uptake at 24 h ([5]; nude (Taconic NCRNU), Stomach, 24 h): 0.1 %ID/g
- tissue uptake at 1 h ([5]; nude (Taconic NCRNU), Tail, 1 h): 1.2 ± 0.1 %ID/g
- tissue uptake at 4 h ([5]; nude (Taconic NCRNU), Tail, 4 h): 0.8 ± 0.2 %ID/g
- tissue uptake at 24 h ([5]; nude (Taconic NCRNU), Tail, 24 h): 0.5 ± 0.7 %ID/g
